Columns and labels:
[1] = target: recombinant Her2, biotinylated (UniProt P04626); assay: plate binding titration of dye-labelled affibody
[2] = target: recombinant Her2, biotinylated (UniProt P04626); assay: SPR
[3] = target: Her2 on SK-BR-3 cells (human (endogenous in SK-BR-3)) (UniProt P04626); assay: flow cytometry on cells

## Her2-specific affibody ZHer2:2891 conjugated with AlexaFluor 488nm dye (designed binder)
[1]
  Kd: 11 nM
[2]
  Kd: 0.115 nM
[3]
  Kd: 7.12 nM

— PMC10691555
